Data as given in PMC10923007.

Tests used:
[1] = biological target: ^GSTCAND1 from bacterial cells (UniProt Q86VP6); assay: pull-down
[2] = biological target: ^GSTCAND1 from insect cells (UniProt Q86VP6); assay: pull-down
[3] = biological target: CUL2^AMCA•RBX1 preassembled with VBC (UniProt Q13617); assay: FRET or BRET

Chain of RBX1•^StrepIICUL2^FL (Q13617 whole entry): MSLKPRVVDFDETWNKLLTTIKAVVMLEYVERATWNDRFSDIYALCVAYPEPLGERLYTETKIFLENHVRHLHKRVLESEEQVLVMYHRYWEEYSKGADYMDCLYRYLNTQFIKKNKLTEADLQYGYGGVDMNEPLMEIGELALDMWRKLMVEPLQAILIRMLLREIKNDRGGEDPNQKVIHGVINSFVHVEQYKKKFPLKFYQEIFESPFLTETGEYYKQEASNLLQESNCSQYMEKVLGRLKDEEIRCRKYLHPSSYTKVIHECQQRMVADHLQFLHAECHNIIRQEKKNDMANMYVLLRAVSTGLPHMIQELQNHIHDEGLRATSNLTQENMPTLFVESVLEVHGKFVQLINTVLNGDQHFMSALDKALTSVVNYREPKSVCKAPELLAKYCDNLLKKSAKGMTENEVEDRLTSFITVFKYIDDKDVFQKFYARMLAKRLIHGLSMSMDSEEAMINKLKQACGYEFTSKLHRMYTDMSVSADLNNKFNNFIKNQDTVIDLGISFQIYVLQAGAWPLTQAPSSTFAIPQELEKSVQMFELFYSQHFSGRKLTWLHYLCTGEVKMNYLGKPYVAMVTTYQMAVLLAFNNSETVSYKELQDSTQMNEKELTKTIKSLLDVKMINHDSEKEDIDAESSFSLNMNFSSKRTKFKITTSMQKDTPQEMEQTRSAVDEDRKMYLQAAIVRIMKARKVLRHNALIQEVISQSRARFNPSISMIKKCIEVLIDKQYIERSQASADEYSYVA
Chain of RBX1•^StrepIICUL2^FL (P62877 whole entry): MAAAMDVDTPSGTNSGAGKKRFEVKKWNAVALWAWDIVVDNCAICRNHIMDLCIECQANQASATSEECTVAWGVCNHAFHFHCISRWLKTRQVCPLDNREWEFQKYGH
Chain of ^FlAsHCAND1 from insect cells (Q86VP6 whole entry): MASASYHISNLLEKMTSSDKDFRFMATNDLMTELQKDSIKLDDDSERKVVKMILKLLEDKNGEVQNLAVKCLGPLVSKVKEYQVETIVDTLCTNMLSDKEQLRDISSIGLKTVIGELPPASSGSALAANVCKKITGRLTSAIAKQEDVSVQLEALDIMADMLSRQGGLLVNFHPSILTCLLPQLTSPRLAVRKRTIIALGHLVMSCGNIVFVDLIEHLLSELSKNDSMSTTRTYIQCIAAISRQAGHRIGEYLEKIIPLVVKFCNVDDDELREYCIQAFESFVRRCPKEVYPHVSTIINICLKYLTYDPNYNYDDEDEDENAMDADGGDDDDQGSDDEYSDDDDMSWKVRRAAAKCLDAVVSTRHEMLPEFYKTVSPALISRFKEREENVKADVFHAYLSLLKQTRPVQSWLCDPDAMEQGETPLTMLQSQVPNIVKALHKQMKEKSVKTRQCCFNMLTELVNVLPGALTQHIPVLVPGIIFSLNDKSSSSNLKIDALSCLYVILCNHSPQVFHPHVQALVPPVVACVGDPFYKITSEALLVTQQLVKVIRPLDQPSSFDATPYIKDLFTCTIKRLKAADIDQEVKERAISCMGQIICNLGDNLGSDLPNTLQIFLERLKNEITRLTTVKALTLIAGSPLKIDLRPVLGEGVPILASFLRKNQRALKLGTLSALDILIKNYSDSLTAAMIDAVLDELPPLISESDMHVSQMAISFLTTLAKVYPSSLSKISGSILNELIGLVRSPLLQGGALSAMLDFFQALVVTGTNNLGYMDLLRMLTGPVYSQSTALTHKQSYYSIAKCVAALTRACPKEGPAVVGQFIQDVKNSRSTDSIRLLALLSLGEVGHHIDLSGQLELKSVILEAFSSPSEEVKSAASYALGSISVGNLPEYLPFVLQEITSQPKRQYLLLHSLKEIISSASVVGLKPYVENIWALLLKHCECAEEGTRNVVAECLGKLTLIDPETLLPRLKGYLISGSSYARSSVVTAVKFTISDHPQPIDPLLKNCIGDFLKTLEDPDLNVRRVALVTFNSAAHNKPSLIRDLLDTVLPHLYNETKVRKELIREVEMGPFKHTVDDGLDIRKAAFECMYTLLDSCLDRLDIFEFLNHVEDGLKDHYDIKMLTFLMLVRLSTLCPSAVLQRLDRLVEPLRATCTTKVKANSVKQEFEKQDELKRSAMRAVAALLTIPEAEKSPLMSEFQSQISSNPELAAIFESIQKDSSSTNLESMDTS
Chain of ^GSTCAND1 from bacterial cells (Q86VP6 whole entry): as above
Chain of ^GSTCAND1 from insect cells (Q86VP6 whole entry): as above

Substance	t1/2 of dissociation [1]	t1/2 of dissociation [2]	kon [3]
RBX1•^StrepIICUL2^FL (from UniProt Q13617 1-745; P62877 1-108) (complex)	3.5 min	16 min	–
^FlAsHCAND1 from insect cells (from UniProt Q86VP6 1-1230) (natural protein)	–	–	9.8e+07 M⁻¹ s⁻¹
